The results in this text go back to US20220411530A1 (NANTONG YICHEN BIOPHARMA, published 2022).

For test [1], the target named is T1, CD3 on Jurkat (CD3+) cells (Homo sapiens (Human), UniProt P07766 23-207; P04234 22-171; P09693 23-182).
T1 construct: also called Jurkat T cells
The test is described as follows: flow cytometry on Jurkat (CD3+) cells.

For test [2], the target named is T2, PSMA on the surface of LnCap cells (human, UniProt Q04609 1-750).
T2 construct: whole, on cells; also called LnCap (PSMA+) cells
The test is described as follows: flow cytometry on LnCap (PSMA+) cells.

Test [3] concerns the target T2, PSMA on the surface of LnCap cells. The test is described as follows: cell-based or functional assay.

T2 sequence (Q04609 whole entry): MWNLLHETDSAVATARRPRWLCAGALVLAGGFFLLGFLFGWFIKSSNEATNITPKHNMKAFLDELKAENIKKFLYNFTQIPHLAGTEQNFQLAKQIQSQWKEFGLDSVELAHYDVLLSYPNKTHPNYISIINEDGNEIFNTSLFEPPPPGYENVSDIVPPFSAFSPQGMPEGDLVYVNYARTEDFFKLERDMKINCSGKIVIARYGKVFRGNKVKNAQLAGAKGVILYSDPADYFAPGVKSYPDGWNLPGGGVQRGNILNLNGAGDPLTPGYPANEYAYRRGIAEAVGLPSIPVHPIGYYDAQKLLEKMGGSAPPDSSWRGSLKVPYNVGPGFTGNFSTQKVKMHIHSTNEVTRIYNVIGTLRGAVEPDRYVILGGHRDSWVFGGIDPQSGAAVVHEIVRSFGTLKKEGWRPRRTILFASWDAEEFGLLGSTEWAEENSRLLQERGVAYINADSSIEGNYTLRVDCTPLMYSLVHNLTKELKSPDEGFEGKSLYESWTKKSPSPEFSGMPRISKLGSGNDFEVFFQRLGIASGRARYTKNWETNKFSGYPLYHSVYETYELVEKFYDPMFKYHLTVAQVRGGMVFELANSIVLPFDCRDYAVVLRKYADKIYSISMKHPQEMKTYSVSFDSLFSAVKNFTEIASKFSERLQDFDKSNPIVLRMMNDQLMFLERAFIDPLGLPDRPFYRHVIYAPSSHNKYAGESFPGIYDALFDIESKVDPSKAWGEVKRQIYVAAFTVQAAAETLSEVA
T1 sequence (P07766 23-207 limits assumed, form in doubt, chain 1 of 3): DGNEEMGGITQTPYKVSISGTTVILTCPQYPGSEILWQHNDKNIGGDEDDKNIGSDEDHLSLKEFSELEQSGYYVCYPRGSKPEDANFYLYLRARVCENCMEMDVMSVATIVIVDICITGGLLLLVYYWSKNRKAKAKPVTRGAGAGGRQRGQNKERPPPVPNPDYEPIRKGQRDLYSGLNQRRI
T1 sequence (P04234 22-171 limits assumed, form in doubt, chain 2 of 3): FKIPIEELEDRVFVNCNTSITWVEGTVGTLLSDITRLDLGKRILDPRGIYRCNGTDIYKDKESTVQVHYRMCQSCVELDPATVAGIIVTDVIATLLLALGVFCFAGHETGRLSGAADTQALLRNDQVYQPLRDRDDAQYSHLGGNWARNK
T1 sequence (P09693 23-182 limits assumed, form in doubt, chain 3 of 3): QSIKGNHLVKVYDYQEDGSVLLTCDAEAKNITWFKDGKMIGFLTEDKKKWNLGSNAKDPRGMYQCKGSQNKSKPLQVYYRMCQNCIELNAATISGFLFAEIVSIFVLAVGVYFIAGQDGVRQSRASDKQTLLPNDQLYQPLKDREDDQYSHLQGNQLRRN

B1: aCD3-aPSMA bispecific antibody (bispecific antibody)
chain 1: not shown
chain 2: EVQLVESGGGLVQPGGSLRLSCAASGFTFNTYAMNWVRQAPGKGLEWVARIRSKYNNYATYYADSVKDRFTISRDDSKNTLYLQMNSLRAEDTAVYYCVRHGNFGNSYVSWFAYWGQGTLVTVSS
notes: also called the bispecific antibody
Regarding B1, the results for the EC50 in test [1] and in test [2] were 510 pM and 50 pM, respectively. The “LDH Killing EC50 (pM)” value in test [3] came out at 184 pM.
